Assay results as given in US20230219996A1.

Tests used:
[1] = target: SARS-CoV-2 spike (Wuhan, wild-type) (SARS-CoV-2) (UniProt P0DTC2); assay: MSD V-PLEX ACE2 kit, sVNT, positive control; competitor ACE2 (NHP study)
[2] = target: SARS-CoV-2 spike (Wuhan, wild-type) (SARS-CoV-2) (UniProt P0DTC2); assay: MSD V-PLEX ACE2 kit, sVNT, positive control; competitor ACE2 (mouse study)

“ACE2 Calibration Reagent (included in the MSD kit)” showed an ACE2-binding percent inhibition [1] of 100% and an ACE2-binding percent inhibition [2] of 100%.
